In US9969784B2, “Compositions and methods for modulation of immune function” (THE CHILDREN'S HOSPITAL OF PHILADELPHIA, priority 2013, dated 2018):

Columns and labels:
[1] = target: T1, Itch (Homo sapiens, UniProt Q96J02); test: ubiquitin charging assay (cell free), Itch; assay type: biochemical; details: E1, E2, ubiquitin, ATP and Mg++, then EDTA, Itch added with the substance
T1 construct: made in house
Procedure: FIGS. 1A-1D. Ndfip1 and Ndfip2 promote ubiquitin charging of Itch. FIG. 1A: E1, E2, ubiquitin, ATP and Mg++ were incubated together to prepare the E2 for ubiquitin transfer. EDTA was added to prevent further transfer of ubiquitin from E1 to E2. This ensures that only a single ubiquitin will be transferred. Itch was then added to the reaction with or without Ndfip1 or Ndfip2. […] FIG. 1C: Schematic diagram of auto-inhibition by Itch and activation by Ndfip1. FIG. 1D: Ndfip peptide mimics therapeutically activate
(§1) There are 9 members of the Nedd4-family of E3 ubiquitin ligases. These ligases are unusual in that there is a high degree of sequence similarity. All family members are composed of a HECT domain (the catalytic subunit), 2-4 WW domains, and a single C2 domain. Auto-inhibition of family members has been described by others, and different mechanisms of auto-inhibition have been proposed. […] We have devised a new way to look at auto-inhibition, namely by using a ubiquitin charging assay which is the initial event in activating Nedd4-family E3 ubiquitin ligases. Ubiquitin charging occurs when an E2 ubiquitin conjugating enzyme transfers ubiquitin to the catalytic cysteine of the Nedd4-family E3 ligase. […] We have determined that Ndfip1 and Ndfip2 are not required for Itch to bind the E2, as association between E2 and Itch occur in the absence of Ndfip1 and Ndfip2. […]

[2] = system: Nedd4; test: ubiquitin charging assay, Nedd4; assay type: biochemical; details: carried out for 30 seconds
Sequence of Nedd4 (P46934 whole entry, species assumed): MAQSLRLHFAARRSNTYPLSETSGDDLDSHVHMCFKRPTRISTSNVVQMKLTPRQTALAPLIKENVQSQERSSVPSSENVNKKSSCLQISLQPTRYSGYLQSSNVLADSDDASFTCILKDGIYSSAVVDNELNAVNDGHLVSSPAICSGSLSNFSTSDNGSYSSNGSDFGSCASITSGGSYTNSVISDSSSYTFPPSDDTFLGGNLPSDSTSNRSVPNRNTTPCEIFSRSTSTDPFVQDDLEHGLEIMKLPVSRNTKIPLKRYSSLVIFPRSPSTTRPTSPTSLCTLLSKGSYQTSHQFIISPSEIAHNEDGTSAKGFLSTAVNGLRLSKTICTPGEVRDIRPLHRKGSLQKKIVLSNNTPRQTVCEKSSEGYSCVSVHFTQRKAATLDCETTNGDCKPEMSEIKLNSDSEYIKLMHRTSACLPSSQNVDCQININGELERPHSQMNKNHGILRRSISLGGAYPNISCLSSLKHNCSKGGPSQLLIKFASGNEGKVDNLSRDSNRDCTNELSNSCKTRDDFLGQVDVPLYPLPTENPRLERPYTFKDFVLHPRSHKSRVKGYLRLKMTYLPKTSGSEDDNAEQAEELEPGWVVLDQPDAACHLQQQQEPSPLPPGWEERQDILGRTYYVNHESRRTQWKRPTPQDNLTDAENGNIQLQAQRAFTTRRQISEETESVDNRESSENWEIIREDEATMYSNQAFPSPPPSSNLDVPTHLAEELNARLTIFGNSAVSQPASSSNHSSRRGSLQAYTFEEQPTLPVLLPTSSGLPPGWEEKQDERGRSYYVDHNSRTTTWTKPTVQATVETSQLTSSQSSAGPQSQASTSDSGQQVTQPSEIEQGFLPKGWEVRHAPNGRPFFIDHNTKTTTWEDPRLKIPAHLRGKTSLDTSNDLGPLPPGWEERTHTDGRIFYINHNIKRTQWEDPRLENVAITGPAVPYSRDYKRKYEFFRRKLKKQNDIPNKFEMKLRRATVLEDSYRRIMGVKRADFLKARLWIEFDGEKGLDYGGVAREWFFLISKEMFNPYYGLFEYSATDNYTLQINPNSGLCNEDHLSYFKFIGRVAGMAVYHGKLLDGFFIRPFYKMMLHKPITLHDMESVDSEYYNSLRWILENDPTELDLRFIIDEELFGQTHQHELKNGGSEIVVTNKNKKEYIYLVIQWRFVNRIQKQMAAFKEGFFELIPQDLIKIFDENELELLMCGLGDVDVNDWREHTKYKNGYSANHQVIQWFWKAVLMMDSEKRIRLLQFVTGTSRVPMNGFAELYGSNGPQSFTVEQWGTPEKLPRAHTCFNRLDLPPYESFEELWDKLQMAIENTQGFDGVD
Procedure: FIG. 8. Multiple Nedd4-family members likely share this mechanism of auto-inhibition and relief by Ndfip1 and Ndfip2. Nedd4 and Itch were expressed, purified and tested in the ubiquitin charging assay in the presence or absence of Ndfip1 or Ndfip2 as shown. Neither Itch nor Nedd4 were charged with ubiquitin in the assay when Ndfip1 or Ndfip2 were omitted from the assay. These assays were carried out for 30 seconds.
as §1, with “ligase. This event is absolutely required for catalytic activity of the E3 ligase.” for “ligase.”

T1 sequence (Q96J02 whole entry, species assumed): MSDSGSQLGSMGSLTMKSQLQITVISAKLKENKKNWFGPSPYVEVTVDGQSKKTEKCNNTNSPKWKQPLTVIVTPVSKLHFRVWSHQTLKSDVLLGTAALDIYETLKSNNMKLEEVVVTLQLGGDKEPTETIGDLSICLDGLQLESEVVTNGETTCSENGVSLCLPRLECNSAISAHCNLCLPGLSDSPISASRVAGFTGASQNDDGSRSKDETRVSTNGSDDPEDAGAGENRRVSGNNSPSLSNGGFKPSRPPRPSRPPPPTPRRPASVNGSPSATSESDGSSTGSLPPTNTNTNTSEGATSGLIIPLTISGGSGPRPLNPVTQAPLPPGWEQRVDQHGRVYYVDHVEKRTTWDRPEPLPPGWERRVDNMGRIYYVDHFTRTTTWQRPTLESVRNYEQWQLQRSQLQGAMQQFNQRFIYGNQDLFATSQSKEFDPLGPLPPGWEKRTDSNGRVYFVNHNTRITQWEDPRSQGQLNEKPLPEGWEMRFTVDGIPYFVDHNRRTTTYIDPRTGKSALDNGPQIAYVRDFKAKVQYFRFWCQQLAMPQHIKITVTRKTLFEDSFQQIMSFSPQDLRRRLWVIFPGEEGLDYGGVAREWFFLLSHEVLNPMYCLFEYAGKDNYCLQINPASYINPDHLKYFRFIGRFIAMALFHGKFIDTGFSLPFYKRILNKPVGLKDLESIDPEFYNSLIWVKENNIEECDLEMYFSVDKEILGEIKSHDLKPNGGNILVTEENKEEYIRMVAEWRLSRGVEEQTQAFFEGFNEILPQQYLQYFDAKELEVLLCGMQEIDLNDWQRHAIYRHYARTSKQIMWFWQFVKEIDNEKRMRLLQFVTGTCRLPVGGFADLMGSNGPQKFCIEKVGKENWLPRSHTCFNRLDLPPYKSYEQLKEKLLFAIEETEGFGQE

B1: Ndfip2: adaptor of the Ndfip family that relieves auto-inhibition of Nedd4-family E3 ligases (protein, UniProt Q9NV92 1-336, looked up)
NEDD4 family-interacting …: MARRRSQRVCASGPSMLNSARGAPELLRGTATNAEVSAAAAGATGSEELPPGDRGCRNGGGRGPAATTSSTGVAVGAEHGEDSLSRKPDPEPGRMDHHQPGTGRYQVLLNEEDNSESSAIEQPPTSNPAPQIVQAASSAPALETDSSPPPYSSITVEVPTTSDTEVYGEFYPVPPPYSVATSLPTYDEAEKAKAAAMAAAAAETSQRIQEEECPPRDDFSDADQLRVGNDGIFMLAFFMAFIFNWLGFCLSFCITNTIAGRYGAICGFGLSLIKWILIVRFSDYFTGYFNGQYWLWWIFLVLGLLLFFRGFVNYLKVRNMSESMAAAHRTRYFFLL
[1]
  ubiquitin charging of Itch: ubiquitin charging of Itch is observed
[2]
  relief of Nedd4 auto-inhibition: auto-inhibition was relieved
